T1: human CD19 exon1-3-his protein (human, UniProt P15391 20-186, limits assumed)
T1 construct: made in HEK293E cells; also called membrane-distal end; not shown: His tag
T1 sequence (looked up): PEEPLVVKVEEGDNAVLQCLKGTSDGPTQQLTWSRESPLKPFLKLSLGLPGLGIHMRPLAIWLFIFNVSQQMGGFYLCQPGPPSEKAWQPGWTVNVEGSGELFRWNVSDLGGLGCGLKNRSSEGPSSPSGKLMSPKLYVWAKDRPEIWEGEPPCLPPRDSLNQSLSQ

T2: murine CD19 protein (murine, UniProt P25918 17-287, limits assumed)
T2 construct: bought protein; also called commercial murine CD19
T2 sequence (looked up): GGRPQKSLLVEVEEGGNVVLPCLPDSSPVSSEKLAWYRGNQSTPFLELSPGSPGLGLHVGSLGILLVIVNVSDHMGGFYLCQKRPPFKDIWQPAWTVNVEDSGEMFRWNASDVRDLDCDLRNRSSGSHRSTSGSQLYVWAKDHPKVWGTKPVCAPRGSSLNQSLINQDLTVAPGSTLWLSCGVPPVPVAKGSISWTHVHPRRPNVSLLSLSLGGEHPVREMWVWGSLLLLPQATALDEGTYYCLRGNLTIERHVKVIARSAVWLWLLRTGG

T3: Human CD19-his protein (human, UniProt P15391 20-291)
T3 construct: bought protein; also called human CD19 protein; recombinant human CD19-His; not shown: His tag
T3 sequence (looked up): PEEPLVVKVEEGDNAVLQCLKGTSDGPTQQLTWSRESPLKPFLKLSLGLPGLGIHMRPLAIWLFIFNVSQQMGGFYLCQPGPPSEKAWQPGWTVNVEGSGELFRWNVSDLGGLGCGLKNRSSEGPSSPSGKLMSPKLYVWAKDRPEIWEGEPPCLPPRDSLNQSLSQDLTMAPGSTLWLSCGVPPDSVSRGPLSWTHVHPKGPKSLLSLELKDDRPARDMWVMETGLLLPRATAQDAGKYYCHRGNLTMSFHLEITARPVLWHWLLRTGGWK


Key:
[1] = target: T1, human CD19 exon1-3-his protein; test: ELISA, coated at 2 ug/mL
Protocol: (§1) Human CD19-his protein (purchased from ACROBiosystems, catalog number: CD9-H52H2) was diluted with PBS to a final concentration of 4 μg/mL, and then added to a 96-well ELISA plate at 100 μl/well. The plate was sealed with a plastic film and incubated overnight at 4° C., the plate was washed 2 times with PBS the next day, and then a blocking solution [PBS+2% (w/w) BSA] was added for blocking at room temperature for 2 h. The blocking solution was poured off, and 100 nM gradiently diluted CD19 chimeric antibody or control antibody was added at 50 μl/well. After incubation at 37° C. for 2 h, the plate was washed 3 times with PBS. […] TMB substrate was added at 50 μl/well, and incubated at room temperature for 10 min, and then a stop solution (1.0 N HCl) was added at 50 μl/well. The OD450 nm values were read by an ELISA microplate reader (Multimode Plate Reader, EnSight, purchased from Perkin Elmer).
CD19 protein contains 4 exons in the extracellular region, in which exons 1-3 are located at the membrane-distal end and exon 4 is located at the membrane-proximal end. […] To identify the distribution of antigen binding epitopes of the chimeric antibodies, human CD19 exon 1-3-His (membrane-distal end) was used to coat at 2 μg/mL according to the ELISA method in example 5.1.

[2] = target: T2, murine CD19 protein; test: ELISA, coated murine CD19
Protocol: as §1
In order to detect the species cross-binding activity of the chimeric antibodies, an ELISA plate was coated with commercial murine CD19 (ACROBiosystems, catalog number: 50510-M08H) and monkey CD19 (ACROBiosystems, catalog number: 90051-C08H), respectively, and the ELISA detection was performed according to the method in example 5.1.

[3] = target: T3, Human CD19-his protein; test: ELISA, antibody at 10 nM
Protocol: as §1

[4] = target: T3, Human CD19-his protein; test: ELISA, antibody at 100 nM
Protocol: as §1

[5] = target: T3, Human CD19-his protein; test: ELISA, antibody at 0.01 nM
Protocol: as §1

[6] = target: T3, Human CD19-his protein; test: ELISA, antibody at 0.10 nM
Protocol: as §1

[7] = target: T3, Human CD19-his protein; test: ELISA, antibody at 1.00 nM
Protocol: as §1

[8] = target: T3, Human CD19-his protein; test: ELISA, antibody at 0.001 nM
Protocol: as §1

[9] = target: T3, Human CD19-his protein; test: ELISA, antibody at 0.0001 nM
Protocol: as §1

Row | binding result [1] | binding result [2] | OD450 [3] | OD450 [4] | OD450 [5] | OD450 [6] | OD450 [7] | OD450 [8] | OD450 [9] | Binder
1 | no binding | no binding | 0.85 | 1.16 | 0.07 | 0.13 | 0.48 | 0.05 | 0.04 | F4.49.11 (antibody, human IgG1, V domains shown, human-murine chimeric antibody, human IgG1) VH: DVQLRASGPGLVKPSQSLSLTCSVTGYSITSGYYWNWIRQFPGNKLEWMGCISYDGTNNYNPSLKNRISFTRDTSKNQFFLNLNSVTTEDSATYYCARRVYYRYDGVVDYWGQGTSVTVSS VL: ENVLTQSPAIMSASPGEKVTMTCSASSSVSYIHWYQQKSSTAPKLWIYDTSKLASGVPGRFSGSRSRNSYSLTISSMEAEDVATYYCFQGSGYPLTFGSGTKLEIK
2 | no binding | no binding | 1.16 | 1.64 | 0.11 | 0.29 | 0.91 | 0.06 | 0.05 | F4.96.6 (antibody, human IgG1, V domains shown, human-murine chimeric antibody, human IgG1) VH: EIQLQQSGPELVKPGASVKVSCKASGYAFSAYNIYWVKQSHGKSLEWIGYIDPYNSGTTYNQKFRGKATLTVDKSSNTAYMHLSSLTSEDSAVYYCTRDGDAMDYWGQGTSVTVSS VL: EILLTQSPAIIAASPGEKVTITCSASSGVIYMNWYQQKPGSSPKIWIYDVSTLASGVPARFSGSGSGTSFSFTINSMEAEDVATYYCQQRSSYPYTFGGGTKLEIK
3 | no binding | no binding | 1 | 1.08 | 0.2 | 0.6 | 0.8 | 0.09 | 0.07 | F4.37.6 (antibody, human IgG1, V domains shown, human-murine chimeric antibody, human IgG1) VH: QVQLQQSGAELARPGASVKLSCKASGYTFTSFWMQWLKQRPGQGLEWIGTIYPGDGDTRYTQKFKGKATLTADKSSNTAYMQLSSLASEDSAVYYCARGALSNYGGFAYWGQGTLVTVSA VL: NIVLTQSPASLAVSLGQRATISCRASESVDSYGHSFMHWYQQKPGQPPKLLIYLASNLESGVPARFSGSGSRTDFTLTIDPVEADDAATYYCQQNNEDPWTFGGGTKLEIK
4 | no binding | no binding | 0.65 | 0.87 | 0.07 | 0.25 | 0.5 | 0.05 | 0.05 | F4.35.5 (antibody, human IgG1, V domains shown, human-murine chimeric antibody, human IgG1) VH: EIQLQQSGPELVKPGASVKVSCKASGYAFTSYNMYWVKQSHGKSLEWIGYIDPYNGDTRYNQKFKGKATLTVDKSSSTAYMHLNSLTSEDSAVYYCTRSGTGRDYWGQGTTLTVSS VL: QIVLTQSPAIMSASPGEKVTMTCSASSSISYMFWFQQKPGSSPRLLIYDTSSLASGVPVRFSGSGSGTSYTLTISRMEAEDAATYYCQQWSNYPYTFGGGTKLEMK
5 | – | no binding | 1.85 | 2.14 | 0.09 | 0.39 | 1.27 | 0.06 | 0.05 | F3.23.10 (antibody, human IgG1, V domains shown, human-murine chimeric antibody, human IgG1) VH: EFQLQQSGPELVKPGASVKISCKASDYSFTDYNMNWVKQSNGASLEWIGIINPNFGSTSYNQKFKGKATLTVDQSSSTAFMQLNSLTSEDSAVYYCARSEYYGSSGFAYWGQGTLVTVSA VL: DVVVTQTPLSLPVSFGDQVSISCRSSQSLVNSYGNTYLSWYLHKPGQSPQLLIYGISNRFSGVPDRFSGSGSGTDFTLKITTIKPEDLGMYYCLQGTHQPWTFGGGTKLEIK
6 | no binding | no binding | 1.2 | 1.43 | 0.13 | 0.4 | 1.07 | 0.06 | 0.05 | F4.276.12 (antibody, human IgG1, V domains shown, human-murine chimeric antibody, human IgG1) VH: EIQLQQSGPELVKPGASVKVSCKASGYAFSAYNMYWVKQSHGKSLEWIGYIDPYNGGTNYNQKFKGKATLTVDKSSSTAYMHLNSLTSEDSAVYYCARDGYEVTYWGQGTLVTVSA VL: QIVLTQSPALMSASLGEEITLTCSASSSVTYMHWSQQKSGTSPRLLIYSTSNLASGVPSRFSGSGSGTFYSLTISSVEAEDAADYYCHQWSSYPWTFGGGTKLEIK
7 | no binding | no binding | 0.26 | 0.33 | 0.06 | 0.08 | 0.13 | 0.06 | 0.06 | F6.2.9 (antibody, human IgG1, V domains shown, human-murine chimeric antibody, human IgG1) VH: QVQLQQSGAELVKPGASVKISCKASGYAFSSYWMNWVKQRPGKGLEWIGQIYPGDGDTNYNGKFKGKATLTADKSSSTGYMQLSSLTSEDSAVYFCARSRITSVVDWYFDVWGTGTTVTVSS VL: QIVLSQSPAILSASPGEKVTMTCRASSSVSYMHWYQQKPGSSPKPWIYATSNLASGVPARFSGSGSGTSYSLTISRVEAEDAATYYCQQWSSNPPTFGAGTKLELK
8 | no binding | no binding | 0.8 | 0.94 | 0.09 | 0.3 | 0.67 | 0.05 | 0.05 | F4.58.6 (antibody, human IgG1, V domains shown, human-murine chimeric antibody, human IgG1) VH: QVQLQQPGAELVKPGASVKLSCKASGYTFTSYWMHWVKQRPGQGLEWIGEIDPSDSYSNYNQKFKGKATLTVDKSSSTAYMQLSSLTSEDSAVYYCARSNYGSSYGYFDVWGAGTTVTVSS VL: QIVLTQSPAIMSASPGEKVTMTCSVSSSLSYMHWYQQKPGTSPKRWIYDTSKLASGVPARFSGSGSGTSYSLTISSMEAEDAATYYCHQRSSYPTFGGGTKLEIK
9 | no binding | no binding | 0.43 | 0.63 | 0.1 | 0.34 | 0.45 | 0.06 | 0.05 | F6.5.20 (antibody, human IgG1, V domains shown, human-murine chimeric antibody, human IgG1) VH: QVQLQQPGAELVKPGASVKLSCKASGYTFTSYWMQWVKQRPGQGLEWIGEIDPSDSYTNYNQKFKGKASLTVDTSSSTAYMQLSSLTSEDSAVYYCARWGLLRNYYVMDYWGQGTSVTVSS VL: EIVLTQSPTTMAASPGEKITITCSASSSISSNYLHWYQQKPGFSPKLLIYRTSNLASGVPARFSGSGSGTSYSLTIGTMEAEDVATYYCQQGSSIPRMLTFGAGTKLELK
10 | no binding | no binding | 1.08 | 1.32 | 0.1 | 0.39 | 0.71 | 0.06 | 0.05 | F6.12.12 (antibody, human IgG1, V domains shown, human-murine chimeric antibody, human IgG1) VH: DVQLQESGPGLVKPSQSLSLTCSVTGYSITSGYYWIWIRQFPGNKLEWMGYISYDASNKYKPSLKNRISITRDTSKNQFFLKLNSVTAEDTATYFCAREDLRGYFDVWGTGTSVTVSS VL: DIVLTQSPASLAVSLGRRATISCRASQSVSTSGFSYMHWYQQKPGQPPNLLIKYASILQSGVPARFSGSGSGTDFILNIHPVEDVDTATYYCQHSWGIPFTFGSGTKLEIK

— US20250042994A1 (HAINAN SIMCERE ZAIMING PHARMACEUTICAL, published 2025)
